According to US20240294638A1 (LES LABORATOIRES SERVIER, published 2024):

Legend:
CD94 homodimer = target: T1, CD94 homodimer (human, UniProt Q13241 32-179, limits assumed); assay: SPR
T1 sequence (looked up): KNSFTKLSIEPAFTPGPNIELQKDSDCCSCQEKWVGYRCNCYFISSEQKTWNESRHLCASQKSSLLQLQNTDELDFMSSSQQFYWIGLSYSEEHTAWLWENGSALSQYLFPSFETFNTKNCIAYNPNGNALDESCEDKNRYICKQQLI
Method: (§1) Kinetic binding analysis of anti-NKG2A monoclonal antibodies (mAbs) was performed by Surface Plasmon Resonance (SPR) using a Continuous Flow Microspotter (CFM, Wasatch Microfluidics, Salt Lake City, US) combined with an IBIS MX96 SPR instrument (IBIS Technologies, The Netherlands). The extracellular domains (ECDs) of human his-tagged NKG2A, NKG2C and FLAG-tagged CD94 were co-expressed using an Expi293™ expression system and purified by standard Ni-NTA chromatography followed by anti-Flag M2 affinity gel (A2220, Sigma). Binding kinetics were measured by capturing mAbs on a G-a-hu-IgG Fc SensEye® for 15 minutes using the CFM. After spotting, the SensEye® was positioned in the IBIS MX96 biosensor and immobilized mAbs were fixed by SensEye FixIt kit. Kinetic analysis was performed by applying a kinetic titration series injecting increasing concentrations of antigens from 1.6 nM to 400 nM as 2-fold dilutions. After each cycle of antigen injection, the surface was regenerated by 100 mM H₃PO₄, pH 3. Antigen association and dissociation were measured for 15 minutes. The recorded binding responses were fitted to a simple 1:1 binding model with Scrubber 2.0 software for calculation of the on-rate (kₒₙ or kₐ), off-rate (Koff or kd) and affinity (KD) constants. Binding kinetic parameters were measured as an average of three independent measuring points.
The binding affinities and kinetic parameters of the anti-NKG2A mAbs binding to NKG2A/CD94 and NKG2C/CD94 heterodimers are shown in Table 7. […] None of the mAbs bound to CD94 homodimer (data not shown).

[1] = target: T2, cynomolgus NKG2A and cynomolgus CD94 expressed on transiently transfected CHO-S cells (cynomolgus, UniProt Q68VD2 1-233; Q68VD4 1-179); assay: blocking of PE-conjugated HLA-E pentamer binding to transiently transfected CHO-S cells, flow cytometry (percentage binding) [panel B cNKG2A]
T2 construct: whole, on cells
Method: (§2) CHO-S cells were transiently transfected with constructs for expression of human NKG2A and human CD94, human NKG2C and human CD94, cynomolgus NKG2A and cynomolgus CD94, or cynomolgus NKG2C and cynomolgus CD94. Mock transfected CHO-S cells were included in the assay as negative control. A PE-conjugated HLA-E pentamer was tested for binding to the heterodimers in the presence of anti-human NKG2A antibodies in 3-fold serial dilutions from 10 μg/mL down to 14 ng/mL antibody, and 0 μg/mL antibody. The antibodies were allowed to bind for 30 min at 4° C. prior to the addition of the HLA-E pentamer in a 1:50 dilution. The fluorescence intensity of HLA-E binding to the transfected cells was measured by high throughput flow cytometry (IQue screener, Sartorius). Data were transferred to Excel and graphs were generated using GraphPad Prism® software.

[2] = target: T3, human NKG2A and human CD94 expressed on transiently transfected CHO-S cells (human, UniProt Q13241 1-179); assay: flow cytometry, transiently transfected CHO-S cells, AF647 goat anti-human IgG secondary (MFI) [cont.), panel 23925]
T3 construct: whole, on cells; also called human NKG2A/CD94 heterodimer
Method: (§3) CHO-S cells were transiently transfected with human NKG2A and human CD94, human NKG2C and human CD94, cynomolgus NKG2A and cynomolgus CD94 or cynomolgus NKG2C and cynomolgus CD94 constructs. Mock transfected CHO-S cells were included in the assay as a negative control. Antibodies were tested for binding to the transfected cells in 3-fold dilutions from 30 μg/mL down to 0.5 ng/ml antibody, and 0 μg/mL antibody, and incubated for 30 min at 4° C. Following a washing step, the cells were incubated with a fluorescent goat anti-human IgG (H+L) secondary antibody (A-21445, Invitrogen) for 30 min at 4° C. in the dark. After a second wash, the cells were tested by high throughput flow cytometry (IQue screener, Sartorius). Data were transferred to Excel and graphs were generated using GraphPad Prism® software.

I225M [3] = target: T4, I225M (Homo sapiens); assay: flow cytometry, CHO-S cells transiently transfected with NKG2A variant and CD94, AF647 goat anti-human IgG secondary (MFI) [cont.), panel 23925]
T4 construct: co-expressed on CHO-S cells; also called human NKG2A I225M / human CD94 heterodimer on CHO-S cells
T4 sequence (P26715 whole entry I225M): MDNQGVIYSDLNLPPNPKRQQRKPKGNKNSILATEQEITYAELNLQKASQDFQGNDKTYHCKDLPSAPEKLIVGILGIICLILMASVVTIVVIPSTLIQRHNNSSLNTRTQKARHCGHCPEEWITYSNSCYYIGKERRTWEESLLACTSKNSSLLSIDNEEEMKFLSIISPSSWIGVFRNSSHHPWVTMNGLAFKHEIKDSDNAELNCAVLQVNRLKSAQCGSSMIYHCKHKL
Method: (§4) Six anti-human NKG2A antibodies were tested for binding to the different heterodimers expressed. Antibodies were tested for binding to the transfected cells in 3-fold serial dilutions from 1 μg/mL antibody, and 0 μg/ml antibody, and incubated for 30 min at 4° C. Following a washing step, the cells were incubated with a fluorescent goat anti-human IgG (H+L) secondary antibody (A-21445, Invitrogen) for 30 min at 4° C. in the dark. After a second wash, the cells were tested by high throughput flow cytometry (IQue screener, Sartorius). Data were transferred to Excel and graphs were generated using GraphPad Prism® software. A reference antibody analogue and an isotype control were included for comparison.

[4] = target: T3, human NKG2A and human CD94 expressed on …; assay: as above
Method: as §4

[5] = target: T5, recombinant human NKG2A/CD94 heterodimer (extracellular domains) (human, UniProt Q13241 32-179); assay: SPR (IBIS MX96), mAb captured on anti-human IgG Fc, ECD heterodimer injected, 1:1 fit
T5 construct: extracellular domain; ECDs co-expressed in Expi293, purified by Ni-NTA and anti-Flag; also called HuNKG2A/huCD94; NKG2A/CD94 ECDs
T5 sequence (chain, as listed by the source, chain 1 of 2, one chain of several): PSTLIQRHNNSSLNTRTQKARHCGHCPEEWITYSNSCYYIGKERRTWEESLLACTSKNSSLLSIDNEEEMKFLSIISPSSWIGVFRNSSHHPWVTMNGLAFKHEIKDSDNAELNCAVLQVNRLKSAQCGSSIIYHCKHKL
Method: as §1

[6] = target: T6, recombinant human NKG2C/CD94 heterodimer (extracellular domains) (human, UniProt P26717 94-231; Q13241 32-179); assay: as above
T6 construct: extracellular domain; also called HuNKG2C/huCD94; NKG2C/CD94 ECDs
T6 sequence (P26717 94-231, chain 1 of 2, one chain of several): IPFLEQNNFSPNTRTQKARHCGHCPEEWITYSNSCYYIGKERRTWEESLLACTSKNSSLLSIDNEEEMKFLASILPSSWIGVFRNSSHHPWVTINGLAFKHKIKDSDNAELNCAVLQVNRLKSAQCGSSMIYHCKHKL
Method: as §1

[7] = target: T3, human NKG2A and human CD94 expressed on …; assay: flow cytometry, CHO-S cells transiently transfected with NKG2A variant and CD94, AF647 goat anti-human IgG secondary (MFI) [panel 23566]
Method: as §4

[8] = target: T3, human NKG2A and human CD94 expressed on …; assay: flow cytometry, transiently transfected CHO-S cells, AF647 goat anti-human IgG secondary (MFI) [panel 23566]
Method: as §3

[9] = target: T2, cynomolgus NKG2A and cynomolgus CD94 …; assay: as above
Method: as §3

[10] = target: T7, human NKG2C and human CD94 expressed on transiently transfected CHO-S cells (human, UniProt P26717 1-231; Q13241 1-179); assay: flow cytometry, transiently transfected CHO-S cells, AF647 goat anti-human IgG secondary (MFI) [panel 23686]
T7 construct: whole, on cells
T7 sequence (P26717 whole entry, one chain of several): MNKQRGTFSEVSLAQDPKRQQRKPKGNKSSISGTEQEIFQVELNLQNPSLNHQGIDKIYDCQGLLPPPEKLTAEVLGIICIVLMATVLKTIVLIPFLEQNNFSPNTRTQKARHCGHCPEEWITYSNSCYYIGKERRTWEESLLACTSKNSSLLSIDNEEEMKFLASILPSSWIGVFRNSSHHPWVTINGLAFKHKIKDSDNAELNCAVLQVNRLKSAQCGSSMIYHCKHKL
Method: as §3

[11] = target: T8, cynomolgus NKG2C and cynomolgus CD94 expressed on transiently transfected CHO-S cells (cynomolgus); assay: as above
T8 construct: whole, on cells
Method: as §3

[12] = target: T3, human NKG2A and human CD94 expressed on …; assay: as above
Method: as §3

[13] = target: T2, cynomolgus NKG2A and cynomolgus CD94 …; assay: as above
Method: as §3

[14] = target: T7, human NKG2C and human CD94 expressed on …; assay: blocking of PE-conjugated HLA-E pentamer binding to transiently transfected CHO-S cells, flow cytometry (percentage binding) [cont.), panel C hNKG2C]
Method: as §2

[15] = target: T7, human NKG2C and human CD94 expressed on …; assay: flow cytometry, CHO-S cells transiently transfected with NKG2A variant and CD94, AF647 goat anti-human IgG secondary (MFI) [panel 23686]
Method: as §4

I225M [16] = target: T4, I225M; assay: as above
Method: as §4

[17] = target: T3, human NKG2A and human CD94 expressed on …; assay: as above
Method: as §4

[18] = target: T8, cynomolgus NKG2C and cynomolgus CD94 …; assay: blocking of PE-conjugated HLA-E pentamer binding to transiently transfected CHO-S cells, flow cytometry (percentage binding) [cont.), panel D cNKG2C]
Method: as §2

B1: antibody 23925 (antibody, human IgG1, kappa, L234A L235A, V domains shown)
VH: EVQLVESGGGLVQPGGSLRLSCAASGFTFSSYAMNWVRQAPGKGLEWVSTISNSGGTTYYADSVKGRFTISRDNSKDTLYLQMNSLRAEDTAVYYCAKAHYYARGYFDYWGQGTLVTVSS
VL: DIQMTQSPSSVSASVGDRVTITCRASQGISSWLAWYQQKSGKAPKLLIYAASSLQIGVPSRFSGSGSGTDFTLTISSLQPEDFATYYCQQANSFPYTFGQGTKLEIKR
notes: Fully human IgG1-LALA (L234A/L235A), kappa
binding result (CD94 homodimer): no binding
binding result [1]: no binding (tested: 10000 ng/ml)
EC50 (read off the curve) [2]: ~0.02 µg/mL
EC50 (read off the curve) (I225M [3]): ~0.003 µg/mL
EC50 (read off the curve) [4]: ~0.004 µg/mL
Kd [5]: 2.23 nM
koff [5]: 0.00042 s⁻¹
kon [5]: 190000 M⁻¹ s⁻¹
Kd [6]: 68 nM
koff [6]: 0.0006 s⁻¹
kon [6]: 8800 M⁻¹ s⁻¹

B2: antibody 23566 (antibody, human IgG1, kappa, L234A L235A, V domains shown)
VH: EVQLLESGGDLVQPGGSLRLSCAASGFTFDNYAMHWVRQAPGKGLEWVSTITNSGGTTYYADSVKGRFTLSRDNSKNTLYLQMNSLRAEDTAVYYCAKAHYYARGYFDFWGQGTLVTVSS
VL: DIQMTQTPSSVSASVGDRVTITCRASQGISSWLAWYQQKPGKAPKLLIYAASSLQSGVPSRFSGSGSGTDFTLTISSLQPEDFATYYCQQANSFPYTFGQGTKLEIKR
notes: Fully human IgG1-LALA (L234A/L235A), kappa; also called mAb 23566
binding result (CD94 homodimer): no binding
EC50 (read off the curve) [7]: ~0.005 µg/mL
EC50 (read off the curve) [8]: ~0.02 µg/mL
binding result [9]: no binding (tested: about 3300 ng/ml)
Kd [5]: 2.5 nM
koff [5]: 0.0011 s⁻¹
kon [5]: 420000 M⁻¹ s⁻¹
Kd [6]: 98 nM
koff [6]: 0.00083 s⁻¹
kon [6]: 8500 M⁻¹ s⁻¹

B3: antibody 23686 (antibody, human IgG1, kappa, L234A L235A, V domains shown)
VH: EVQLVESGGGLVKPGGSLRLSCAASGFTFSSYSMNWVRQAPGKGLEWVSSISSSSSYIYYADSVKGRFTISRDNAKNSLYLQMNSLRAEDTAVYYCARDEWGLLGFDSWGQGTLVTVSS
VL: EIVLTQSPATLSLSPGERATLSCRASQSISNYLAWYQQKPGQAPRLLIYDASNRATGIPARFSGSGSGTDFTLTISSLEPEDFAVYYCQQRTDWPPWTFGQGTKVEIKR
notes: as for B1
binding result (CD94 homodimer): no binding
EC50 (read off the curve) [10]: ~0.01 µg/mL
EC50 (read off the curve) [11]: ~0.02 µg/mL
EC50 (read off the curve) [12]: ~0.03 µg/mL
EC50 (read off the curve) [13]: ~0.02 µg/mL
IC50 (read off the curve) [1]: ~0.3 µg/mL
IC50 (read off the curve) [14]: ~0.2 µg/mL
EC50 (read off the curve) [15]: ~0.003 µg/mL
EC50 (read off the curve) (I225M [16]): ~0.007 µg/mL
EC50 (read off the curve) [17]: ~0.005 µg/mL
IC50 (read off the curve) [18]: ~0.7 µg/mL
Kd [5]: 0.72 nM
koff [5]: 0.00014 s⁻¹
kon [5]: 200000 M⁻¹ s⁻¹
Kd [6]: 3.9 nM
koff [6]: 0.0026 s⁻¹
kon [6]: 670000 M⁻¹ s⁻¹
